Key:
[1] = target: bovine SOD1, rhodamine B labeled (bovine, UniProt P00442 2-152); experiment: FRET; 20 mM Tris-HCl pH 7.4; 100 uM DNA, 200 uM SOD1; fitted from kinetic curve; FRET: 20 mM Tris-HCl pH 7.4, 37 C, 2 h; MST: 10 mM PBS pH 7.4, 0.05% Tween, room temperature, 5 min; SAXS: 100 uM bovine SOD1 and dsDNA, buffer not given in material; conditions: protein: commercial; tags: rhodamine B label; chain copies: 2; blunt
[2] = target: human Cu/Zn superoxide dismutase SOD1, RED-NHS labeled (human, UniProt P00441 1-154); experiment: MST; 500 nM SOD1; DNA two-fold dilutions from 20 uM; FRET: 20 mM Tris-HCl pH 7.4, 37 C, 2 h; MST: 10 mM PBS pH 7.4, 0.05% Tween, room temperature, 5 min; SAXS: 100 uM bovine SOD1 and dsDNA, buffer not given in material; conditions: protein: recombinant; tags: N-terminal His tag; RED-NHS dye; chain copies: 2; blunt
Sequence of human Cu/Zn superoxide dismutase SOD1, RED-NHS labeled (P00441 whole entry): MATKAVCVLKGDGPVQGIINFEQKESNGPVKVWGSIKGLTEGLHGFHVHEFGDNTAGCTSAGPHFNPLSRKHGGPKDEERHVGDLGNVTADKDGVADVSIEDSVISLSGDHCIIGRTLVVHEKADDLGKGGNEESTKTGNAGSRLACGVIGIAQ

Sequence of bovine SOD1, rhodamine B labeled (P00442 2-152): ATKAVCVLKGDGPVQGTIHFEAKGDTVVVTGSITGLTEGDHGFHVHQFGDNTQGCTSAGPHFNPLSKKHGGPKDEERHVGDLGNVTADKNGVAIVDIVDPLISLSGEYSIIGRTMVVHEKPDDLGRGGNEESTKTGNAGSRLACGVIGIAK

B1: FITC-dsDNA (dsDNA)
DNA 1: ATGGAATGGAAT
DNA 2: ATTCCATTCCAT
- Kd [1]: 105 nM

B2: dsDNA (dsDNA)
DNA 1: ATGGAATGGAAT
DNA 2: ATTCCATTCCAT
- Kd [2]: 155 nM
